Molecular target: human CCR8 (human) (UniProt P51685)
Test: cell-based or functional assay

B1: murine anti-human CCR8 mAb 433H (BD Biosciences) (antibody, from another filing, mouse IgG2a, V domains shown)
VH: EVQLVETGGGLVQPKGSLRLSCAASGFPFNTFAMNWVRQAPGKGLEWLARIRSKSNNYATYYADSVKDRFTISRDDSRRMLYLLMNNVKFEDTAIYYCVRGKENNYGYAMDYWGQGTSVTVSS
VL: DIVMTQAAPSVPVTPGESVSISCRSSQSLLHSNGNTYLYWFLQRPGQSPQLLIYRMSNLASGVPDRFSGSGSGTAFTLRISRVEAEDVGVYYCMQHLEYPFTFGIGTKLELKR
  IC50 of CCL1 blocking (Ca2+ influx, CHO/hCCR8.Gna15 cells): 17.6 nM
  induction fold at plateau (about 40 nM antibody), mFcgRIV Jurkat reporter with CHO/hCCR8: 13 fold
  induction fold, mFcgRIV Jurkat NFAT-luciferase reporter with CHO/hCCR8, at about 1 nM antibody: > 12 fold

— patent US20250297019A1
